Our source for the protein production values is a protein production outcome set (Wang et al. 2014).
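Further: failed if final PepcDB status was selected cloned or expressed and not failed if soluble or beyond.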

The data set can be described thus: label from the status in PepcDB records.
Take “MKKWFPALLFSLCVSGESSAWNHNIVFYSLGNVNSYQGGNVVITQRPQFITSWRPGIATVTWNQCNGPEFADGSWAYYREYIAWVVFPKKVMTQNGYPLFIEVHNKGSWSEENTGDNDSYFFLKGYKWDERAFDAGNLCQKPGETTRLTEKFDDIIFKVALPADLPLGDYSVTIPYTSGIQRHFASYLGARFKIPYNVAKTLPRENEMLFLFKNIGGCRPSAQSLEIKHGDLSINSANNHYAAQTLSVSCDVPANIRFMLLRNTTPTYSHGKKFSVGLGHGWDSIVSVNGVDTGETTMRWYKAGTQNLTIGSRLYGESSKIQPGVLSGSATLLMILP”: the protein production entry is “failed”.

For “MKLAKLIPKRFFIRSKDRSTVSKSPTAFSFGSASSSSGQDCKNSGGDGGGGSVTPTSILPEVPSPYSYVEILQAFKLIDRDNDGAVSRHDLESLLSRLGPDPLTEEEINVMLKEVDCDGDGTIRLEELASRVVSLDPARDSTELKETFEFFDADRDGLISADELLRVFSTIGDERCTLDDCKRMIADVDEDGDGFVCFTEFSRMMDLQR”, the protein production result is “failed”.

For the sequence “MKLALITDTSAYLPEAIENHEDVYVLDIPIIIDGKTYIEGQNLTLDQYYDKLAASKELPKTSQPSLAELDDLLCQLEKEGYTHVLGLFIAAGISGFWQNIQFLIEEHPNLTIAFPDTKITSAPQGNLVRNALMCSREGMDFDVIVNKIQSQIEKIEGFIVVNDLNHLVKGGRLSNGSAIIGNLLSIKPVLHFNEEGKIVVYEKVRTEKKALKRLAEIVKEMTADGEYDIAIIHSRAQDKAEQLYNLLAKAGLKDDLEIVSFGGVIATHLGEGAVAFGITPKN”, the protein production result is “not failed”.

As to “MKLDDLNLFRLVVENGSYTATSRKTMIPVATITRRIQALEDSVNLRLLNRHARKLSLTEAGERFYHECSPLLQRLTSTAEEITDDCRGASGKIKISAPYNLTKRMMMPMFNDFMKKYPDINIELTTENNADQLDPTEWDVIFRVGPQRDSSLIARKIGEVKDILVASQDYLAANPAPNHAEELSNHSLLKGYPLIKWTLINSKGESVVNVERGRFQANALNVVRSACSEGLGITLMPDVMIKEYIESGELLRVLPDWSANPRDIYMLYNHKDHLPEKVRLFIDFVIAYNIH”, the protein production entry is given as “failed”.

Turning to “MKLDWNGIDTVLLDMDGTLLDRHFDDHFWLEHVPKRYAAQNGIPLDEAKKLLYALFRSQERTLNWTDLDYWSERLGLDIPVLKQEIDHLIAVHPGVVEFLVFLRRHGKQAWLVTNAHGKTLSLKMRKTRLGPYFTGIISAHDLGLPKEDVRFWEKLQERVPYEPSRTLLGEDSETNLGTAEEYGIAHLIYVSRYSSTVTPTASDRYASIHYFTQLIPAAHTDET”, the protein production result was “failed”.

For “MKLEIGYNHPFEIRKERYESDHVCNFSVLYISDLHLTVFSKDICTRLSKCIQELNPTIIILGGDYIDCRNGWDYLSTFFKFLSARKNVFSIAGNHDYFYGIDEIKKLIESNNIHWLENQSAVVNIQEYNILLTGNNETQSSIPADFNILCLHKPVSLDAFKIPYHIAFAGHLHGCQCVFWQNENGLYPGRFFYTFNFLRRQVKNCLYLISKGLGDTLPIRFNCKKDIIFVEIKNNSNKLEHHHHHH”, the protein production result is recorded as “failed”.

As to “MKLERILPFSKTLIKQHITPESIVVDATCGNGNDTLFLAEQVPEGHVYGFDIQDLALENTRDKVKDFNHVSLIKDGHENIEHHINDAHKGHIDAAIFNLGYLPKGDKSIVTKPDTTIQAINSLLSLMSIEGIIVLVIYHGHSEGQIEKHALLDYLSTLDQKHAQVLQYQFLNQRNHAPFICAIEKIS”, the protein production entry is “failed”.

As to “MKLHLTNLYGMAGDSTVILAQNAVQKIASQLGFREVGIYFYNIASDSPSEMNKRLDGIMASISIGDILVFQSPTWNGFEFDRLLFDKLKDMQVKIICFIHDVVPLMFDSNYYLMKDYLYMYNLSDVLIVPSERMKTRLMEEGLTTKKILVQGMWDHPHDLSLYTPAFKKELFFAGSLERFPDLQNWSQDTPLRVFSNKGEASSSARSLSIEGWKKDEELLLELSKGGFGLVWGTHQNEGESNQYYTLNISHKVSTYLTAGIPVIVPSSLSTAKFIVDQGLGFMADSLEEVHEIVDKMNLQEYQEMTNRIKTFSYLLKEGYFTKKLLVDAIYHLGID”, the protein production entry is “failed”.

In the case of “MKLIKFVRNVVLFILTAIFLAFMLLVSYCMPHYSAAVISGVEVKRMNENENTPNNKEVKTLARDVYFVQTYDPKDQKSVTVYRNEDTRFSFPFYFKFNSADISALAQSLINQQVEVKYYGWRINLFNMFPNVIFLKPLKESTDISKPIFSWILYALLLMGFFISARSVCTLFKSKAH”, the protein production result is on record as “failed”.

In the case of “MKLIKTIDAVGQVLCHDITQIIPGEFKGRKFKKGHIVKEEDIPVLLSLGKDNLYVWEKSEGMVHENEGALFLKELTAGENLDFSEIKEGKIDFIAACDGLLKIDVDALFDLNCVGEIMMATLHNNFIVNKGLKVAGTRVIPLVIDEKKLEDAKKVVGNRKIVNVVPFKPKKVGIVTTGNEVFYSRIVDKFGPVIEEKVKGFGCEVIGQTICPDDKEIIKSAIKEFISQGAELICCTGGMSVDPDDVTPTAIKETGADLVTYGSPILPGAMFLLAYYGEVPIMGIPGCAMYHKTTVFDIVLSRVLIDEKLDKYDIARYGHGGLCMNCDVCTYPACNFAKILEHHHHHH”, the protein production result is “failed”.

In the case of “MKLIQMSDHIYKLNIQTTVGIPIQINTWFIVNDNDVYIIDTGMDDYAELQITIAKSLGNPKGIFLTHGHLDHINGAKRISEALKIPIFTYKNELPYINGELPYPNKTHTENTGVQYIVKPLETNTNLPFNYYLTPGHAPGHVIYFHNQDKILICGDLFISDAQHLHIPIKKFTYNMTENIKSGQIIDNLCPKLITTSHGDDLYYSDDIYSIYKFKYEELEHHHHHH”, the protein production entry was “failed”.

For “MKLIRLIASPILMYVLAGVYALVLAIATFVENSSGPAVAREYFYYAPWFILLQLLQAVNLLAMFLQGGYFKRISKGSLIFHGALVFIWLGAAVTHYAGVTGIMHIREGETVDRMMRDEGAGMGNASLPFSVTLDDFRLKRYPGSHSPMSYESDLVIKKENEAPLQATVRMNKVIEVDGYRLFQSSFDPDEQGTVLSVSYDRPGMQITYIGYFLLFAGFVLTLFSKKSRFGRLRRELGEMKKNAPFCLLLFLGLSGALGTQASYAQETLSSSQLPCIPAPHARKFGSLVLLNPNGRLEPVNSYTSAILRKLYGADKLNSINSDQFFLNLLAFPDEWGGYPFIKVDNKDILQRFGRDGKYIAWQDVFDADGNYVLTDEVNAIYAKSASERKRMDSDLLKLDESVNIVYRIMQHQLLPLFPDENDVQGKWYSAGDEQTVFHDKDSLFVSKIMDWYIYELGNGVRTNNWKEADKIVDMMHIFQQAKSKTPAIDNQRVKAELLYNQLNLFFWCRLAYLILGGILLFIACGEIIADFKWGSRLSSILIVLLIAAFLAHTTGVLLRWYISERAPWANAYESMICTSWLLVGGGLLFARRFRILPALAGLLGGIMLFVAGLNHLNPEITPLVPVLQSYWLMSHVAIIMIGYVFFALCALTGLFNLILMNLLSATNRVKLLFRIREFTLLNEMAMILGLFFMTAGTFLGAIWANVSWGRYWGWDPKETWALISIVVYALVLHIRFIPLLKGKTTWCYNLLSVVSILSIIMTWFGVNYYLSGLHSYGKTEGGDLLLWIWGAGLCVVLALALFARRRLKKYS”, the protein production entry is given as “failed”.

Consider “MKLISQAVKNYLPELSLRQKQTNNIIFITFWSQFSVYALNTVLVLFLTRPLIAQGLGYSQAKAYAFIGVTQATGYLMPILGGYMADNIVGVRRSILLGSIMLACAYLLVMLSGYTISSLGDQLFIIAFAFIPATNSLLMGTASSMVSHIYSDDAIKAKSAMTYYYMAINVGALLATMIAPVLLESRYGPLSVLTLTFIGKSIAALNFAKRYSIYDSVIWGMDKSKFSNQGLLRLVAYIAAIYSLTLYAYTHVYIASTLIGAGCAIGILWFLIKTIMLKGETRSKQMIAVLLIIEAIVFFIIYNQMNSTLVLFAENNSDLSFLWFKISPAQYQMLNPLLILLIGSQLPRFYRFFSRFTIPYQFAAGTILSGIALLVMAFAAQNAINGLVNGNYIALTYILISIAELWVSAIGLSMIGLYCDARAIAFAMGVWYLASSMSNAISGRIAGWVAIPENINSALESLPYYKNYYLIMGISALGLGILMYFVAYYLHKIMKRRGIELA”, for which the protein production result is “failed”.

“MKLKKEKKMAEFTFEIEEHLLTLSENEKGWTKEINRVSFNGAPAKFDIRAWSPDHTKMGKGITLSNEEFQTMVDAFKGNLEHHHHHH”: the protein production entry is on record as “not failed”.

As for “MKLLENSRFEALSSQLCVETGDAQIIGRIESYSCKMAGDDKHMFKQFCQEGEPHVLEALSPPQSSSAPSPNLLGKSGEDAENPLSDKCCRKTLFYLITTLNESFRPDYDFSAARAHEFSREPSANWVANSVNSSLYSAVGEQFNTLGPELWTAIDQEINLQGCDIYSYNPDLDSDPFGEEGSLWSFNYFFYNKKLKRILFFTCRSVSVLSSYGRSGLDNELDMELDDEEELDGFMEDRIPRALCV”, the protein production result was “failed”.

Regarding “MKLLFVSPGWPRGRLWGELGFKFPSLSLAALAAVTPESWDVALCDENIEPLDLNSDADLVAITAMTPQAPQAYRIAAAFRARGKRVVMGGFHASNLPEEALQHVDAVVVGEGEVVWPQLLADLERGELQRIYRAATALAMEAIPVARRELFQGKRYLFTNTLQTTRGCPFDCEFCSVTAFYGRRYRKRPVDNVLAELELLRRRNSFAFFVDDNLVADRTYALSLFAGMKGMGFKWLSHAPIDFAHDREFLRAAGEAGCVGMFVGFESLNQDALAAMGKVTNTARSYLEDAQAFRDNGIGILGSFVLGCDNDTPAVFEGLLRFCEEARLEAAIFPILTPYPGTEVRRRLEAEGRIISSDWQDYDMEHVTFLPRGMSVDELQQGYDWLNRSFYSLPSMYRRIFKAHRSVQVFAPMNFGFRSAIRRKGRVA”, the protein production result is on record as “failed”.

Consider “MKLMVNHQTHYHYSEVARNSIQYIKMIPQSSPHQLVHYWDISVPGERIMKRDAFDNLWITSSQRFDYQNLTIMAQGIVELNLQNSGCHDSVVLPHVFLQPTPATLCDAEMLNFALEIVKTKDVSSLINLSQKILERITYSPYSTNVQTTAIDAFYAAQGVCQDHAHVMIAMCRALNLPARYVSGYLYDYNSPHLASHAWAEVYVDHEWHCFDVSNQIFVPKTHIYVAIGRDYFDVAPIRGIRENGGIEEMISTVQVLAC”, for which the protein production entry is recorded as “failed”.

Regarding “MKLNIKDVVLNYNIIGEGEPIIILHGYSVDHTIMFGCMENLFSDESRYKRIYVDLPGMGKSTSSDSIKTSDNMLDIILEFIMKVTKGENFLLVGESYGGYLSRGVVYKIREKVNGLFLICPAIIPDFNKRTVPEHVILAYDEKLMSKLNKEEAEEFSSMSVVQNEKIYLRFKEEVMSGIKLGNQDFLERLQREGYGFSFDVDKLPQKFDKPTLMLLGKQDASVGYKDAWNILDNYPRATFAVLDMAGHNLQIEQEDIFNLLGKEWISRTYREKDY”, the protein production result is on record as “failed”.

As for “MKLSAAGVEKIKPTDKRQEIPDSLCVGLYLIVQPTGKKGWQVRYRHGGVHRRMSLGAFPVLSLAGARERARQTLAAASAGTDPAAEVKAAKAPKLDGDRDKIKTLIGQFDKRHLSKLKSGAVVRRELERHVVSAWGERDVHQIGKRDVIDLLDGIADSGRVVTANRVRAYLAKFFGWCVERDILATSPAAGVKPAGKETSRARVLTDDEIRWFWTACEAEGFPWGPFGKVLLLTGQRLNEVAQMTDSEIRGDLWHLTADRTKNGRAHDVPLTGAVRAALDEVERVTDEEGRVRFIFTTTGRTPVSGFFKARAVLAEAMVGIAQKERGEPVEIPRWTFHDLRRTAATGMARLGIPVRVTEAVLNHVSGTGGGIVAVYQRHDYADEKRQALEAWARFVLSLVEGEADNVVRLQHG”, the protein production result is listed as “failed”.
